This is an account of results in patent US20120149889.

Where two headings read alike, the source gives them in different places.

Data set [1] deals with WNV envelope peptide (West Nile virus). Kind of data set: ELONA.
Data set [2] relates to outer membrane proteins (OMPs) (Rickettsia belli). The data set can be described thus: ELONA.
Data set [3] deals with CCHF envelope peptides (individual peptide not specified) (Crimean-Congo hemorrhagic fever virus). The data set can be described thus: ELONA.
Data set [4] deals with outer membrane proteins (OMPs) (Rickettsia conorii). Kind of data set: ELONA.
In data set [5] the test system is TBEV target (not specified) (Tick-borne encephalitis virus). The data set can be described thus: ELONA.
In data set [6] the test system is outer membrane proteins (OMPs) (Rickettsia rickettsii). Kind of data set: ELONA.
The subject of data set [7] is outer membrane proteins (OMPs) (Rickettsia parkeri). The data set can be described thus: ELONA.
Data set [8] addresses CCHF Peptide 1 (envelope surface peptide) (Crimean-Congo hemorrhagic fever virus) (UniProt Q8JSZ3). Kind of data set: SPR.
Sequence of UniProt Q8JSZ3 (Q8JSZ3 whole entry, looked up): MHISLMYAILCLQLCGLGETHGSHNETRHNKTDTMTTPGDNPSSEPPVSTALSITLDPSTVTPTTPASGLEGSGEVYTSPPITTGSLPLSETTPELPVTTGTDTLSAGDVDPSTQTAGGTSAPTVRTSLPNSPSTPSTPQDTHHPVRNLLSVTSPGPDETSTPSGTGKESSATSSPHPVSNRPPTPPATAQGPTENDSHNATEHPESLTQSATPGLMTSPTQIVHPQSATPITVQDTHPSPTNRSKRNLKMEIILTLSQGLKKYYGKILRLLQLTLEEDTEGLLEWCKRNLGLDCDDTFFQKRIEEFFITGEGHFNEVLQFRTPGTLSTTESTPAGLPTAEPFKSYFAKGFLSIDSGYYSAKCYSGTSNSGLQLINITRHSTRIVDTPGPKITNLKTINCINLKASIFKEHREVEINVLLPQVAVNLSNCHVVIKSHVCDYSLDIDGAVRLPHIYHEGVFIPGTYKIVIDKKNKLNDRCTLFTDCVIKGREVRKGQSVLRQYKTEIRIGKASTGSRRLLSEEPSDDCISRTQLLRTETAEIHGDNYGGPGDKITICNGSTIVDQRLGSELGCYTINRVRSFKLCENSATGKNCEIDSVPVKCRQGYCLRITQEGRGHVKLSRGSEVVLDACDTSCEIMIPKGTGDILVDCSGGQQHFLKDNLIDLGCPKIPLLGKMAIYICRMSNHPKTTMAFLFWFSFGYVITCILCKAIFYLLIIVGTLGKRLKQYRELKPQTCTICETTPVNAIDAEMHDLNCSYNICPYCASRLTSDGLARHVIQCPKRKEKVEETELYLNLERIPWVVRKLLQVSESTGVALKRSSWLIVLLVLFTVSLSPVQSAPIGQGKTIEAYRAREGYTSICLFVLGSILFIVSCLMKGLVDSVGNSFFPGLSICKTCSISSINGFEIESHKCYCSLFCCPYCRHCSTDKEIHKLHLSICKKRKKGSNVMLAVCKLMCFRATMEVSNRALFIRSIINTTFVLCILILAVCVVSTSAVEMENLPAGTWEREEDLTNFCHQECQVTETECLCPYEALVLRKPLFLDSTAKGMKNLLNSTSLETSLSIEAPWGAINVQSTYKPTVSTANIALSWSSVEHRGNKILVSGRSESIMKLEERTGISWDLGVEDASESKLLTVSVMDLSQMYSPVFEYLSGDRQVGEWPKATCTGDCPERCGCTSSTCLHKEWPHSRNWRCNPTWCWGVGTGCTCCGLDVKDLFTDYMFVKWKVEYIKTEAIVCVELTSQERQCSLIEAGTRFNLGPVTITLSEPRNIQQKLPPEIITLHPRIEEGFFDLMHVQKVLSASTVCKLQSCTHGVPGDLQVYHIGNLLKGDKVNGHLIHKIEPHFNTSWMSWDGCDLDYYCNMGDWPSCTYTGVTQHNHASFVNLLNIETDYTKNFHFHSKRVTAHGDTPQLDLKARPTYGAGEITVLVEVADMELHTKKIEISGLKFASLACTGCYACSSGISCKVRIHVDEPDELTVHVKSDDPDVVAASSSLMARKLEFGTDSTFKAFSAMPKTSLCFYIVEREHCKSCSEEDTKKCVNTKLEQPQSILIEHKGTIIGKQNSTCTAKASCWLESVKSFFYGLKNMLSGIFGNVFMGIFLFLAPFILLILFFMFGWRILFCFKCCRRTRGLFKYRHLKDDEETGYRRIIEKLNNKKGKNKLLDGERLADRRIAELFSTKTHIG
For data set [9], the system named is outer membrane proteins (OMPs) (Rickettsia typhi). Kind of data set: ELONA.

Sequence “ATACGGGAGCCAACACCACAGCTGATATCGGATGGTCCGGCAGAGCAGGTGTGACGGAT [WNV 19F]” had a binding signal in data set [1] of 2.73 A405. In turn, “ATACGGGAGCCAACACCAGCACTGCAGTTAACATTTACGAAGAGGCTTTAATGCAGAGCAGGTGTGACGGAT [R5-39F]” came in with a binding signal in data set [2] of 1.95 A405. For the sequence “ATACGGGAGCCAACACCATGTCAGGACCTCCATCGCCCGGGCCCGCCGCCGCTGAGAGCAGGTGTGACGGAT [WNV 16F]”, the binding signal in [1] worked out at 2.45 A405. Sequence “ATACGGGAGCCAACACCACAGACACCGAATGAGCAACACAACAACGGGACCCGTAGAGCAGGTGTGACGGAT [C2-8F]” returned a binding signal in data set [3] of 1.65 A405. In the case of “ATCCGTCACACCTGCTCTTTGGTTAATCCGAATTTGCTTGCACTTAAGTTGTGCTGGTGTTGGCTCCCGTAT [R4-1R]”, the binding signal in data set [4] was found to be 2.12 A405.

In the case of “ATACGGGAGCCAACACCACCGCAGGAGTCCATCAGGGGTTGGCAGTCAGCGCTCAGAGCAGGTGTGACGGAT [TBEV-2F]”, the binding signal in data set [5] turned out to be 2.31 A405. “ATCCGTCACACCTGCTCTCCAGATTTGGTGTTATGCTCTTGTTTGGCTTGGACTTGGTGTTGGCTCCCGTAT [R4-14R]” came in with a binding signal in data set [4] of 2.05 A405. “ATCCGTCACACCTGCTCTACATCACATCTGACTGAGTCCATGGCGCTCTGTGTGTGGTGTTGGCTCCCGTAT [R3-39R]”: the binding signal in data set [6] came to 2.05 A405. Turning to “ATCCGTCACACCTGCTCTACGGCCCTGCACCACTTATTCTAGGCAGTGTTCTTCTGGTGTTGGCTCCCGTAT [C1-10R]”, the binding signal in data set [3] stood at 1.62 A405. Turning to “ATACGGGAGCCAACACCACAGCTGACAATAGAAGGATATCCTGGGTACCGATGCAGAGCAGGTGTGACGGAT [C3-4F]”, the binding signal in [3] was determined as 2.67 A405. Take “ATACGGGAGCCAACACCAGAAAATGAATACTTCCCAAGCTTGTCAAGCAAGTAAGAGCAGGTGTGACGGAT [R2-5F]”: the binding signal in [7] turned out to be 1.95 A405. “ATCCGTCACACCTGCTCTCCAAGGACACGTTACCGTATTGGCCCAACACTATGGTGTTGGCTCCCGTAT [C1-1/7R]” returned a binding signal in data set [3] of 2.05 A405. As a reminder, the Kd is a measure of binding affinity in units of concentration. Lower therefore signals tighter binding. “ATACGGGAGCCAACACCATGGTGACGGACCTTGAGAGCAAGACCGCTACGATTCAGAGCAGGTGTGACGGAT [C1-9F]” gave a dissociation constant (Kd) in data set [8] of 8.13 pM. Further, the binding signal in data set [3] was 2.24 A405. “ATCCGTCACACCTGCTCTCAGCGGCGGCGGGCCCGGGCGATGGAGGTCCTGACATGGTGTTGGCTCCCGTAT [WNV 16R]” displayed a binding signal in data set [1] of 2.25 A405. In turn, “ATCCGTCACACCTGCTCTGCCGGACCATCCGATATCAGCTGTGGTGTTGGCTCCCGTAT [WNV 19R]” yielded a binding signal in data set [1] of 2.18 A405. Turning to “ATACGGGAGCCAACACCATAACGGTTCCCTTAATGCGCTACCCACACTATACAAGAGCAGGTGTGACGGAT [R2-14F]”, the binding signal in data set [7] was 2.08 A405. Take “ATACGGGAGCCAACACCAGAGACGTCTTAGCCTCGCGATCCCGTCCGTTGGCCCAGAGCAGGTGTGACGGAT [TBEV-6F]”: the binding signal in [5] amounted to 2.07 A405. In data set [3], “ATCCGTCACACCTGCTCTGGGCAGCACTACCGGTGTCGTTGTGTTGGCATTTCTTGGTGTTGGCTCCCGTAT [C1-6R]” showed a binding signal of 1.95 A405. Consider “ATACGGGAGCCAACACCAGCCAATTATACAGGTAGGTCAAAAAAGTTTAGGGGAAGAGCAGGTGTGACGGAT [TBEV-4F]”, for which, in data set [5], the binding signal is 1.88 A405. “ATCCGTCACACCTGCTCTGGCCGTTAGAGCCCAGCCAAGTGCTTGGCGACGGGGTGGTGTTGGCTCCCGTAT [WNV 18R]” yielded a binding signal in data set [1] (also positive in lateral flow (FIG. 9C)) of 2.65 A405. As to “ATACGGGAGCCAACACCATTGACTTGGCCGTCTCTGACCCCTAGCACCCCTCGCAGAGCAGGTGTGACGGAT [TBEV-10F]”, the binding signal in data set [5] stood at 1.95 A405. In turn, “ATACGGGAGCCAACACCACCCCGTCGCCAAGCACTTGGCTGGGCTCTAACGGCCAGAGCAGGTGTGACGGAT [WNV 18F]” showed a binding signal in data set [1] of 2 A405. The sequence “ATCCGTCACACCTGCTCTACATCACATCTGACTGAGTCCATGGCGCTCTGTGTGTGGTGTTGGCTCCCGTAT [TBEV-8R]” displayed a binding signal in data set [5] of 2.43 A405. As for “ATACGGGAGCCAACACCAGCACAACTTAAGTGCAAGCAAATTCGGATTAACCAAAGAGCAGGTGTGACGGAT [R4-1F]”, the binding signal in [4] is 1.99 A405. For “ATCCGTCACACCTGCTCTGTACGTTACTCGCCGATACGGAAGGGCGGTGCCGAGTGGTGTTGGCTCCCGTAT [TBEV-1R]”, in data set [5], the binding signal came out at 2.15 A405. As for “ATCCGTCACACCTGCTCTGAATCGTAGCGGTCTTGCTCTCAAGGTCCGTCACCATGGTGTTGGCTCCCGTAT [C1-9R]”, in data set [3], the binding signal was found to be 1.56 A405. The sequence “ATCCGTCACACCTGCTCTATACCAACGGGGGACGGTCTGAGCTAGTGACGCCCGTGGTGTTGGCTCCCGTAT [C3-7R]” displayed a binding signal in data set [3] of 1.5 A405. Consider “ATCCGTCACACCTGCTCTCGGGACGCGAGCGGCCTGCGGGAACCAGGCGGGGGCTGGTGTTGGCTCCCGTAT [C3-6R]”, for which the binding signal in [3] came out at 2.48 A405. “ATACGGGAGCCAACACCATAGTGTTGGGCCAATACGGTAACGTGTCCTTGGAGAGCAGGTGTGACGGAT [C1-1/7F]” displayed a binding signal in data set [3] of 1.9 A405.

In [7], “ATCCGTCACACCTGCTCTTTTCCTATGAATGGTAATCAATTAGAGTCTATATCTTGGTGTTGGCTCCCGTAT [R2-17R]” yielded a binding signal of 2.05 A405. For the sequence “ATACGGGAGCCAACACCACCAACGAATACTACCAGGCCTAGCACAATACACAACAGAGCAGGTGTGACGGAT [R1-27bF]”, the binding signal in [9] came out at 2.62 A405.

With “ATACGGGAGCCAACACCATAACAAATAACCACCCTCAATGCTAGATAGTGGCTTAGAGCAGGTGTGACGGAT [R5-23F]”, in [2], the binding signal was 2.93 A405. On to “ATCCGTCACACCTGCTCTTCCCCTAAACTTTTTTGACCTACCTGTATAATTGGCTGGTGTTGGCTCCCGTAT [TBEV-4R]”, for which the binding signal in [5] stood at 2.12 A405. For the sequence “ATCCGTCACACCTGCTCTCAACGGCCACTAGTCTATTCACTTAAAGGGGCATGGTGGTGTTGGCTCCCGTAT [TBEV-5R]”, the binding signal in [5] was 1.93 A405. Regarding “ATCCGTCACACCTGCTCTGCGAGGGGTGCTAGGGGTCAGAGACGGCCAAGTCAATGGTGTTGGCTCCCGTAT [TBEV-10R]”, the binding signal in data set [5] turned out to be 1.82 A405. As to “ATCCGTCACACCTGCTCTGCAAAGAGGTCGTAGTGCCGTGTCCGGTCGGATACCTGGTGTTGGCTCCCGTAT [C2-10R]”, in data set [3], the binding signal came out at 1.66 A405. Regarding “ATACGGGAGCCAACACCACACACAGAGCGCCATGGACTCAGTCAGATGTGATGTAGAGCAGGTGTGACGGAT [R3-39F]”, in data set [6], the binding signal turned out to be 2.12 A405. In turn, “ATACGGGAGCCAACACCACCATGCCCCTTTAAGTGAATAGACTAGTGGCCGTTGAGAGCAGGTGTGACGGAT [TBEV-5F]” displayed a binding signal in [5] of 2.06 A405. The sequence “ATACGGGAGCCAACACCACCCGTGGCCTTCACCCAGCCAGGGGCCCCGTCTCTGAGAGCAGGTGTGACGGAT [WNV 20F]” displayed a binding signal in data set [1] of 2.54 A405. “ATCCGTCACACCTGCTCTGAGCGCTGACTGCCAACCCCTGATGGACTCCTGCGGTGGTGTTGGCTCCCGTAT [TBEV-2R]”: the binding signal in data set [5] is 2.6 A405.

For “ATACGGGAGCCAACACCACTCGGCACCGCCCTTCCGTATCGGCGAGTAACGTACAGAGCAGGTGTGACGGAT [TBEV-1F]”, the binding signal in data set [5] is 1.94 A405. Consider “ATCCGTCACACCTGCTCTATGAGTCTATCCAGTTCTAAAAGTTCCGCTCTTTATTGGTGTTGGCTCCCGTAT [C1-1R]”, for which the binding signal in [3] was determined as 1.99 A405.

In turn, “ATCCGTCACACCTGCTCTGGGCCAACGGACGGGATCGCGAGGCTAAGACGTCTCTGGTGTTGGCTCCCGTAT [TBEV-6R]” had a binding signal in data set [5] of 2.12 A405. Consider “ATCCGTCACACCTGCTCTCAGAGACGGGGCCCCTGGCTGGGTGAAGGCCACGGGTGGTGTTGGCTCCCGTAT [WNV 20R]”, for which, in data set [1], the binding signal turned out to be 2.47 A405.

Consider “ATCCGTCACACCTGCTCTAAATAGATCACGCATAATGGCATTAGTATTAGTGTTGGTGTTGGCTCCCGTAT [R5-21bR]”, for which the binding signal in [2] amounted to 1.89 A405. For the sequence “ATCCGTCACACCTGCTCTTTCACTAAGCTGACTTTTCACCTCGTCTTCGTGCCGTGGTGTTGGCTCCCGTAT [R3-40R]”, the binding signal in [6] turned out to be 1.99 A405.

With “ATCCGTCACACCTGCTCTGCATCGGTACCCAGGATATCCTTCTATTGTCAGCTGTGGTGTTGGCTCCCGTAT [C3-4R]”, in [3], the binding signal came to 2.47 A405. For the sequence “ATACGGGAGCCAACACCACACACAGAGCGCCATGGACTCAGTCAGATGTGATGTAGAGCAGGTGTGACGGAT [TBEV-8F]”, in [5], the binding signal came out at 1.85 A405.

“ATACGGGAGCCAACACCATCCTCCCGCGACGTCTGGAGAACAGCCTCTACTTTAAGAGCAGGTGTGACGGAT [TBEV-7F]” had a binding signal in [5] of 2.02 A405.

Consider “ATCCGTCACACCTGCTCTTAAAGTAGAGGCTGTTCTCCAGACGTCGCGGGAGGATGGTGTTGGCTCCCGTAT [TBEV-7R]”, for which the binding signal in data set [5] stood at 1.97 A405. “ATACGGGAGCCAACACCAATGAGAGCAAAGATCCCAGGATACACTAATCCCTGTAGAGCAGGTGTGACGGAT [C1-3F]”: the binding signal in [3] worked out at 1.85 A405. As to “ATCCGTCACACCTGCTCTCCAAGGACACGTCACCGTATTGGCCCAACACTATGGTGTTGGCTCCCGTAT [C3-8R]”, the binding signal in data set [3] came to 1.48 A405. Sequence “ATACGGGAGCCAACACCACACGAACGGAGTGCACCGGGGAAGATACTCCAACGCAGAGCAGGTGTGACGGAT [TBEV-3F]” showed a binding signal in data set [5] of 1.8 A405. On to “ATCCGTCACACCTGCTCTACAGTTAGAGCTTGCCGTATGCCTTTGTTAACATAATGGTGTTGGCTCCCGTAT [R1-30R]”, for which the binding signal in data set [9] amounted to 2.85 A405. For “ATCCGTCACACCTGCTCTGCGTTGGAGTATCTTCCCCGGTGCACTCCGTTCGTGTGGTGTTGGCTCCCGTAT [TBEV-3R]”, the binding signal in data set [5] came to 1.91 A405.

In turn, “ATCCGTCACACCTGCTCTTGCTTATATTTAATTTTTTTCCCAAACTAGTAAGATTGGTGTTGGCTCCCGTAT [R1-21R]” showed a binding signal in [9] of 2.88 A405.
